{"source": "patent US12083165B2", "about": "“Thymosin alpha 1 for use in treatment of cystic fibrosis” (SciClone Pharmaceuticals International (SG) PTE. LTD., priority 2015, dated 2024)", "key": {"ΔF508 CFTR [1]": {"molecular_target": "T1, ΔF508 CFTR (Homo sapiens, UniProt P13569, DEL508-508)", "T1 sequence (P13569 with tags, fused parts or gaps DEL508-508)": "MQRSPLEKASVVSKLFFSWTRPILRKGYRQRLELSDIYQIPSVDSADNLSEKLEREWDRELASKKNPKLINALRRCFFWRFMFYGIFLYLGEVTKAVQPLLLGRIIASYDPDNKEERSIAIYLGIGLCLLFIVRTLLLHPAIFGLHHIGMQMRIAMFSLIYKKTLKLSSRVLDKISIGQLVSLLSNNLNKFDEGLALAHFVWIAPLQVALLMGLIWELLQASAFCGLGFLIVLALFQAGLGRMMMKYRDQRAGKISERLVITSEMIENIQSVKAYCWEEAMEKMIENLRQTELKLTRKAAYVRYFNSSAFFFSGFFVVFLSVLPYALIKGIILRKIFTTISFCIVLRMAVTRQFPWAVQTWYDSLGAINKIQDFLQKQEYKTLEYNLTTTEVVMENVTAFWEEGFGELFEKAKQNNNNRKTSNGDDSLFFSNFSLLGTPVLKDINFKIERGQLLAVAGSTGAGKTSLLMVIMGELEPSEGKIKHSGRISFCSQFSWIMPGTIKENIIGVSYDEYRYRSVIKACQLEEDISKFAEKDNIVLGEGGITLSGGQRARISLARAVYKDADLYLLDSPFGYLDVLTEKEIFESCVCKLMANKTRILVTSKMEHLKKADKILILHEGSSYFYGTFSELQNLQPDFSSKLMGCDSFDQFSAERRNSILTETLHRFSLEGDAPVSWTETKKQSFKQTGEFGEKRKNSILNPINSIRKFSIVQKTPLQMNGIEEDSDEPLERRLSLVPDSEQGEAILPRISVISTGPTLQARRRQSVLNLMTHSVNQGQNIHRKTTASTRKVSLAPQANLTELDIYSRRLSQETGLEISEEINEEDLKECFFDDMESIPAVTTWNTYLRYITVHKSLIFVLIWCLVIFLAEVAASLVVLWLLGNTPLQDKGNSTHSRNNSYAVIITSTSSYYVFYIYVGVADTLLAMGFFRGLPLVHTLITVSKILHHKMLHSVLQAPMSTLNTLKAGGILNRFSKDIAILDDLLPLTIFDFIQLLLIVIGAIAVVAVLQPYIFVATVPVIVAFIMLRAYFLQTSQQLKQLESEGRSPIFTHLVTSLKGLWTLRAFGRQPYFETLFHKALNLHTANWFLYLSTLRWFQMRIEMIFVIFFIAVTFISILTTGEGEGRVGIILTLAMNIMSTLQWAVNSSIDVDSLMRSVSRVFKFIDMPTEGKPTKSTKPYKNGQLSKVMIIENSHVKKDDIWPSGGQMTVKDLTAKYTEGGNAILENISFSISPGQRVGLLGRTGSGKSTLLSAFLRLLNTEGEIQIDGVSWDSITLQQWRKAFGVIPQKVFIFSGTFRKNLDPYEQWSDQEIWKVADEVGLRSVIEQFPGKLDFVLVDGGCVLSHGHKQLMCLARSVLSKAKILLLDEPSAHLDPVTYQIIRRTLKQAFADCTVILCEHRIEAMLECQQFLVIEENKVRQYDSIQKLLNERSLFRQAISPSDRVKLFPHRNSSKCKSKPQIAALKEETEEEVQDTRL", "assay": "CFTR immunoblot (mature C / immature B band) in CFBE41o− cells stably expressing ΔF508 CFTR", "format": "cell-based", "protocol": "Cells. Cell Lines and Cell Culture—Human bronchial epithelial (HBE) cells, homozygous for the […] mutation and its isogenic wild-type were obtained from lung transplants (CF patients) or lung resections (non-CF patients) (kindly provided by L J Galietta within the Italian Cystic Fibrosis Foundation). Cells were maintained at 37° C. in a humidified incubator in an atmosphere containing 5% CO2, and the experiments were done 5 days after plating (21, 22). Stable lentiviral-based transduction of the parental CFBE41o− cells (ΔF508/ΔF508), originally immortalized and characterized by Dr. D. Gruenert and co-workers (32) with either WT-CFTR or ΔF508-CFTR, was performed by Tranzyme, Inc. (Birmingham, AL). The transduced CFBE41o− cells were maintained in minimum Eagle's medium supplemented with 50 units/ml penicillin, 50 μg/ml streptomycin, 2 mM L-glutamine, 10% fetal bovine serum, and 1 μg/ml blasticidine (WT-CFTR) or 2 μg/ml puromycin (ΔF508-CFTR) in a 5% CO2, 95% air incubator at 37° C. The parental CFBE41o− cells were maintained under the same culture conditions but without blasticidine or puromycin. To establish polarized monolayers, CFBE41o− cells were seeded on 24-mm-diameter Transwell permeable supports ([…] pore size; Corning Corp., Corning, NY) at 2×10^6 and grown in air-liquid interface culture at 37° C. for 6-9 days and then at 27° C. for 36 hours. Cells were incubated with Tα1 100 ng/ml (CRIBI Biotechnology, Padova, see below), 3 μM VX-809 (Lumacaftor, Aurogene Rome, Italy), 1 μM VX-770 (Ivacaftor, Aurogene) alone or in combination for 24 hours before the assessment of CFTR protein expression and function. DMSO vehicle alone (0.1%, v/v) for 24 h was used as a control.\n(§1) CFTR Immunoblot Analysis. Immunoblot techniques using the anti-CFTR antibody (clone CF3, Abcam) were used to measure CFTR maturation in FRT, HEK-293, or HBE cells expressing CFTR or F508del-CFTR (34). After incubation, cells were harvested in ice-cold D-PBS solution (without calcium and magnesium) and pelleted at 1,000×g at 4° C. Cell pellets were lysed in 1% Nonidet P-40, 0.5% sodium deoxycholate, 200 mM NaCl, 10 mM Tris, pH 7.8, and 1 mM EDTA plus protease inhibitor mixture (1:250; Roche) for 30 min on ice. Lysates were spun for 10 min at 10,000×g at 4° C. to pellet nuclei and insoluble material. […] LiteAblotPlus chemiluminescence substrate (Euroclone S.p.A.), using ChemiDoc™ XRS+ Imagig system (Bio-Rad Laboratories) and blot quantification was obtained by densitometry image analysis using Image Lab 3.1.1 software (Bio-Rad).\nThe SV40 transformed CF airway epithelial cell line (CFBE41o−), homozygous for the ΔF508-CFTR mutation, was used (32). […] CFTR bands were quantified by densitometry and expressed as the C/B ratio. […]"}, "ΔF508 CFTR [2]": {"molecular_target": "T1, ΔF508 CFTR", "assay": "Immunoblot of purified plasma membrane (PM) fraction for CFTR", "format": "cell-based", "conditions": "100 ng/ml Tα1, plasma membrane fraction", "protocol": "as §1, with “material. Approximately 12 μg total protein was heated in Laemmli buffer with 5% β-mercaptoethanol at 37° C. for 5 min and loaded onto a 3% to 8% Tris-acetate gel (Invitrogen).” for “material.”\nThe SV40 transformed CF airway epithelial cell line (CFBE41o−), homozygous for the ΔF508-CFTR mutation, was used (32). […] CFTR bands were quantified by densitometry and expressed as the C/B ratio. […] Densitometric measurement of the CFTR (C band) at the PM was expressed as CFTR PM/CFTR total ratio (Panel C, FIG. 2)."}}}
{"substance": "Ac-Ser-Asp-Ala-Ala-Val-Asp-Thr-Ser-Ser-Glu-Ile-Thr-Thr-Lys-Asp-Leu-Lys-Glu-Lys-Lys-Glu-Val-Val-Glu-Glu-Ala-Glu-Asn-O (Ac-SDAAVDTSSEITTKDLKEKKEVVEEAEN-OH; not fully specified; printed as Ac-Ser-Asp-Ala-Ala-Val-Asp-Thr-Ser-Ser-Glu-Ile-Thr-Thr-Lys-Asp-Leu-Lys-Glu-Lys-Lys-Glu-Val-Val-Glu-Glu-Ala-Glu-Asn-O; listed as Homo sapiens) [Tα1, naturally occurring polypeptide of 28 amino acid; supplied as purified sterile, lyophilized, acetylated polypeptide]", "values": [{"measurement": "cellular expression of ΔF508 mature CFTR (band C, C/B ratio)", "setting": "ΔF508 CFTR [1]; 100 ng/ml Tα1, from 30 mins until 24 hours, CFBE41o− cells expressing ΔF508 CFTR", "value": "persistently increased"}, {"measurement": "expression of the mature form (C) relative to the immature form (B) of CFTR", "setting": "ΔF508 CFTR [1]; ΔF508-transfected cells, 24 hours, Tα1 100 ng/ml, VX-770 1 μM, VX-809 3 μM alone or in combination", "value": "increased"}, {"measurement": "expression of ΔF508 CFTR at PM (CFTR PM/CFTR total ratio)", "setting": "ΔF508 CFTR [2]", "value": "increased"}]}
